In publication PMC7170535:

Key:
complement C3 (human) [1] = target: complement C3 (human)
complement C3 (human) [2] = test: SPR; ~2,000 RU C3 immobilised on a CM5 chip; rHC1 as analyte; HEPES-buffered saline pH 7.5, 0.05% Tween 20, 2 mM MnCl2
complement C3 (human) [3] = test: SPR; ~2,000 RU C3 immobilised on a CM5 chip by amide coupling; rHC1 or IαI as analyte; HEPES-buffered saline pH 7.5, 0.05% Tween 20, 2 mM Mg2+, 2 mM Mn2+; multicycle kinetics, 1:1 Langmuir

B1: recombinant inter-α-inhibitor heavy chain 1 (rHC1), wild type (natural protein)
chain: SKSSEKRQAVDTAVDGVFIRSLKVNCKVTSRFAHYVVTSQVVNTANEAREVAFDLEIPKTAFISDFAVTADGNAFIGDIKDKVTAWKQYRKAAISGENAGLVRASGRTMEQFTIHLTVNPQSKVTFQLTYEEVLKRNHMQYEIVIKVKPKQLVHHFEIDVDIFEPQGISKLDAQASFLPKELAAQTIKKSFSGKKGHVLFRPTVSQQQSCPTCSTSLLNGHFKVTYDVSRDKICDLLVANNHFAHFFAPQNLTNMNKNVVFVIDISGSMRGQKVKQTKEALLKILGDMQPGDYFDLVLFGTRVQSWKGSLVQASEANLQAAQDFVRGFSLDEATNLNGGLLRGIEILNQVQESLPELSNHASILIMLTDGDPTEGVTDRSQILKNVRNAIRGRFPLYNLGFGHNVDFNFLEVMSMENNGRAQRIYEDHDATQQLQGFYSQVAKPLLVDVDLQYPQDAVLALTQNHHKQYYEGSEIVVAGRIADNKQSSFKADVQAHGEGQEFSITCLVDEEEMKKLLRERGHMLENHVERLWAYLTIQELLAKRMKVDREERANLSSQALQMSLDYGFVTPLTSMSIRGMADQDGLKPTIDKPSEDSPPLEMLGPRRTFVLSALQPSPTHSSSNTQRLPDRVTGVDTD
Question: With B1 as the binder, how does the fluid phase alternative pathway C3 convertase (C3bBb) assay, proteolytic release of C3a quantified by SDS-PAGE; rHC1 at 0 to 27 μM (complement C3 (human) [1]) read?
Answer: 980 nM

Question: And the Kd (complement C3 (human) [2])?
Answer: 473 nM

Question: And the Kd (complement C3 (human) [3])?
Answer: 364 nM
